Reference: PMC6277709, “Lipid-Modified Azurin of Neisseria gonorrhoeae Is Not Surface Exposed and Does Not Interact With the Nitrite Reductase AniA” (Frontiers in Microbiology, 2018)

Molecular target: the molecule itself
Experiment: cross-linking; in vivo: intact living N. gonorrhoeae (WT or Δlaz, grown under standard aerobic conditions) in PBS with 0, 0.1, 0.25 or 0.4 mM DSP, 37°C, 5% CO2, 30 min; quenched with 50 mM Tris-HCl pH 8.0; SDS-PAGE without reducing agent at 4°C; immunoblot with anti-BamA, anti-AniA or anti-Laz antiserum

B1: Nitrite reductase AniA of Neisseria gonorrhoeae FA1090, endogenous in living gonococci (enzyme)
chain: CGGEQAAQAPAETPAASAEAASSAAQATAETPAGELPVIDAVTTHAPEVPPAIDRDYPAKVRVKMETVEKTMKMDDGVEYRYWTFDGDVPGRMIRVREGDTVEVEFSNNPSSTVPHNVDFHAATGQGGGAAATFTAPGRTSTFSFKALQPGLYIYHCAVAPVGMHIANGMYGLILVEPKEGLPKVDKEFYIVQGDFYTKGKKGAQGLQPFDMDKAVAEQPEYVVFNGHVGSIAGDNALKAKAGETVRMYVGNGGPNLVSSFHVIGEIFDKVYVEGGKLINENVQSTIVPAGGSAIVEFKVDIPGSYTLVDHSIFRAFNKGALGQLKVEGAENPEIMTQKLSDTAYAGSGAASAPAASAPAASAPAASASEKSVY
notes: source: endogenous, living N. gonorrhoeae FA1090 (WT and Δlaz) cells
  stoichiometry N: 3
